Among the data in patent publication US20230183233A1, “Bicyclic Pyridin-2-one and pyrimidin-4-one Derivatives Useful As a Factor XIa Inhibitors” (Janssen Pharmaceutica NV, priority 2021, published 2023) are Km, kcat and kcat/Km values, retold here.

The test system of this data set is Cc1cc(=O)oc2cc(NC(=O)[C@H](CCCNC(=N)N)NC(=O)[C@@H]3CCCN3C(=O)CNC(=O)OCc3ccccc3)ccc12. As to the kind of experiment: Kallikrein inhibition assay utilizing a quenched AMC peptide substrate (FLINT, kinetic read). The class given is biochemical, human. Particulars: other: peptide substrate for kallikrein; titration data fit to the Michaelis-Menten equation; pH 7.5.

human plasma kallikrein (Homo sapiens), sequence (chain, as listed by the source): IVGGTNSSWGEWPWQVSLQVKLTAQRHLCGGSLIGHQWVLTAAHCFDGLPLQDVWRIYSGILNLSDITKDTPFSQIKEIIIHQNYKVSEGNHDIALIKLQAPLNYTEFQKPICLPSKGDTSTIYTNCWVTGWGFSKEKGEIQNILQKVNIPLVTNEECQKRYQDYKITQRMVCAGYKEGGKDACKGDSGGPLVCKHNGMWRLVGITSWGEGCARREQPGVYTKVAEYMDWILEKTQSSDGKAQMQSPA

Regarding human plasma kallikrein (Homo sapiens), the Michaelis constant (Km) (commonly the substrate concentration at which the rate is half of its maximum) is 40 µM; the turnover number (kcat) (in general, the maximal rate divided by the concentration of active sites) was 0.76 s⁻¹; the kcat/Km is reported as 18932 M-is-1.
